{"source": "patent US20170166621A1", "target": "GLP-1 receptor (UniProt P43220)", "sequence (P43220 24-463 limits assumed)": "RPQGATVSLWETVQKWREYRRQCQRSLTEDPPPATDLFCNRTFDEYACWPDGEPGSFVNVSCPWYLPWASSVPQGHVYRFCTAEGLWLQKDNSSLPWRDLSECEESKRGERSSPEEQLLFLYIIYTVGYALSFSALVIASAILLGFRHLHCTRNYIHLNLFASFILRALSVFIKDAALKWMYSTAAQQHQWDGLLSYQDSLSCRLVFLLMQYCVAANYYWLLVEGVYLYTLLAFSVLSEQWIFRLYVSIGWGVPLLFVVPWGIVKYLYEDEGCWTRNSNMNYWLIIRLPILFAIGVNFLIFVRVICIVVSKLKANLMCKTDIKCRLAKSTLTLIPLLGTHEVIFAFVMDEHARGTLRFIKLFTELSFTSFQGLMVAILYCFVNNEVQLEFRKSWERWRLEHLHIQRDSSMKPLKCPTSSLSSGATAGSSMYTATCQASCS", "assay": "cell-based or functional assay"}
{"substance": "Exendin-4 (peptide)", "values": [{"measurement": "cAMP EC50 (fold-Ex-4); GLP-1R only cells", "result": 1, "unit": "fold"}, {"measurement": "cAMP EC50 (fold-Ex-4); GLP-1R/FGFR1c/beta-klotho cells", "result": 1, "unit": "fold"}, {"measurement": "cAMP EC50 (nM); GLP-1R only cells", "result": 11, "unit": "nM"}, {"measurement": "cAMP EC50 (nM); GLP-1R/FGFR1c/beta-klotho cells", "result": 6, "unit": "nM"}, {"measurement": "cAMP y-max (% Ex-4); GLP-1R only cells", "result": 100, "unit": "%"}, {"measurement": "cAMP y-max (% Ex-4); GLP-1R/FGFR1c/beta-klotho cells", "result": 100, "unit": "%"}]}
